Blank lines part the entries; values can stand above or below the binder they belong to.
Assays:
[1] = molecular target: T1, MUT-7^FL/MUT-8^FL complex (Caenorhabditis elegans, UniProt P34607 1-910; Q19672 1-578); assay: pull-down; purified proteins (5 μM) pre-incubated 30 min at 4°C in 20 mM HEPES/NaOH pH 7.5, 150 mM NaCl, 10% glycerol, 0.05% IGEPAL, 2 mM DTT; GST-tagged MUT-16 constructs held on glutathione resin; SDS-PAGE, Coomassie; conditions: both partners purified
T1 construct: C. elegans exonuclease MUT-7, residues 1-910 (full length); C. elegans MUT-8 (RDE-2), residues 1-578 (full length); Complex formed beforehand by co-expression; also called full-length MUT-7/MUT-8; MUT-7/MUT-8; source: E. coli BL21(DE3) derivative, co-expressed, purified through several chromatographic steps
T1 sequence (looked up) 1: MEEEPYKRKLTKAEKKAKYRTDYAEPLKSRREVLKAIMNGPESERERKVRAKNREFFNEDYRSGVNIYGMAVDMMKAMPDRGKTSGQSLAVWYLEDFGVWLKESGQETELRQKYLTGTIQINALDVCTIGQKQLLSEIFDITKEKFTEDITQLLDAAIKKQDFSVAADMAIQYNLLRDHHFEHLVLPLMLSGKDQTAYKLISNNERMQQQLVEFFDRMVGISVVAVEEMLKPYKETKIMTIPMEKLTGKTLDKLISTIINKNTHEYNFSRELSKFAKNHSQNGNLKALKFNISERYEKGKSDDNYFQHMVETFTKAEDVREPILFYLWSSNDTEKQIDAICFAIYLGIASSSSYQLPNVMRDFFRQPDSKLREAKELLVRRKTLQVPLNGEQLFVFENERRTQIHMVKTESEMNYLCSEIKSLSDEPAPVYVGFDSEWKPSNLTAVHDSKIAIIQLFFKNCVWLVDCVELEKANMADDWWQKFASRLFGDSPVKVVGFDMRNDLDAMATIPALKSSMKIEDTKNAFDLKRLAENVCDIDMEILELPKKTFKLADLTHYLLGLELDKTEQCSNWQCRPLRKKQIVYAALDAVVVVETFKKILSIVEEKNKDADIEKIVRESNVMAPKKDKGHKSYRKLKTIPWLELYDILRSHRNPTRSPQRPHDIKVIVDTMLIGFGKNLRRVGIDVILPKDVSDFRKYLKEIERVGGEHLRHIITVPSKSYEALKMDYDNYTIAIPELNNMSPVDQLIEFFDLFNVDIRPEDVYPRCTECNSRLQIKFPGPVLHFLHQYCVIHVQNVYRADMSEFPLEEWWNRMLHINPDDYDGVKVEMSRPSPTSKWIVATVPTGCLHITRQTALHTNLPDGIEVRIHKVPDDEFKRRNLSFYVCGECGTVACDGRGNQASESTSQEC
T1 sequence (looked up) 2: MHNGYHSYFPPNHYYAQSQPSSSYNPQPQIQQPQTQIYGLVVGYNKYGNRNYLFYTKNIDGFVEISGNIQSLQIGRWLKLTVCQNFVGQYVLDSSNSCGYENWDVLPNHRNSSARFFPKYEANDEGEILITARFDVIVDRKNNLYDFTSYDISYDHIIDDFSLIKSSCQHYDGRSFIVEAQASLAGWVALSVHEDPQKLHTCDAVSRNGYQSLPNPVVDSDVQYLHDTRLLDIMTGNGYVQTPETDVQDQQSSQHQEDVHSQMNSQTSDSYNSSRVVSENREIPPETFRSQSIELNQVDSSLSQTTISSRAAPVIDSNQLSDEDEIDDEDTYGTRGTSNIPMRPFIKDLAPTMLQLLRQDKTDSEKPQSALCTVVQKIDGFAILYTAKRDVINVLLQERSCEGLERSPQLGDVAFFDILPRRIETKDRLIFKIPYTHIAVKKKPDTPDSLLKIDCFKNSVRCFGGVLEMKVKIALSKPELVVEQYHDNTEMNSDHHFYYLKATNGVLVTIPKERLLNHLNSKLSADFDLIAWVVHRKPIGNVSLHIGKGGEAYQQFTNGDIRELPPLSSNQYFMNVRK

[2] = molecular target: T2, MUT-8^NTD (1–235), purified (Caenorhabditis elegans, UniProt Q19672 1-235); assay: ITC; isothermal titration calorimetry of MUT-8^NTD and MUT-16^584–724; conditions: both partners purified
T2 construct: C. elegans MUT-8 N-terminal domain, residues 1-235
T2 sequence (looked up): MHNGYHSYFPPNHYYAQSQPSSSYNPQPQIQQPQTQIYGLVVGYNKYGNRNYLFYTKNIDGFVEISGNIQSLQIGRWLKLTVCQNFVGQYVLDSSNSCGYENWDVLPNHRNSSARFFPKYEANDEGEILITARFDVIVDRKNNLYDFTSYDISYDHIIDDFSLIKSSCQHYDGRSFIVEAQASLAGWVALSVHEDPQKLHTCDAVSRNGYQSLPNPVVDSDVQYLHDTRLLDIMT

MUT-7 NTD-EXO = molecular target: T3, MUT-7 NTD-EXO (Caenorhabditis elegans, UniProt P34607 1-625); assay: fluorescence polarization; 5 mM EDTA, 150 mM NaCl; Hill h 1.491; FP, 50 nM RNA, 30 min, room temperature; C. elegans proteins: 20 mM HEPES/NaOH pH 7.5, 150 mM NaCl, 10% glycerol, 5 mM EDTA; human proteins: 20 mM HEPES/NaOH pH 7.5, 250 mM NaCl; conditions: protein: recombinant; label: 5'-FAM; single strand
T3 sequence: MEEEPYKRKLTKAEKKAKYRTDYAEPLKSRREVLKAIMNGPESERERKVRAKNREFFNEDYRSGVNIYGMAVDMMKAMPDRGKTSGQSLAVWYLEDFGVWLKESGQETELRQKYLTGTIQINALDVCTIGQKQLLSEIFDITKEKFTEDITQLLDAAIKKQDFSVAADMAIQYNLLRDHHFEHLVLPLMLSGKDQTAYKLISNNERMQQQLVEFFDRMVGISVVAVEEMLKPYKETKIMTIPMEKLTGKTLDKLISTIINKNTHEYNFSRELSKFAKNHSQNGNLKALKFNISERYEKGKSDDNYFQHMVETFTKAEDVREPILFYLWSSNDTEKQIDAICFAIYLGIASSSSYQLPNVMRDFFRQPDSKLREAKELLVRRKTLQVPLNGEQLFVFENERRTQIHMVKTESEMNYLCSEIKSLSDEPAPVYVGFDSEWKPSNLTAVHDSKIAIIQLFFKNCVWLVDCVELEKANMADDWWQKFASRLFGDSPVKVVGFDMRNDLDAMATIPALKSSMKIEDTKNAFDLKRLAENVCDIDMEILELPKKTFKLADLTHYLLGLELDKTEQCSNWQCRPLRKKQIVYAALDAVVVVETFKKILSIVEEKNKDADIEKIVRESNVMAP

MUT-7 FL = molecular target: T4, MUT-7 FL (Caenorhabditis elegans, UniProt P34607 1-910); assay: fluorescence polarization; 5 mM EDTA, 150 mM NaCl; Hill h 1.195; FP, 50 nM RNA, 30 min, room temperature; C. elegans proteins: 20 mM HEPES/NaOH pH 7.5, 150 mM NaCl, 10% glycerol, 5 mM EDTA; human proteins: 20 mM HEPES/NaOH pH 7.5, 250 mM NaCl; conditions: protein: recombinant; tags: His10-MBP-3C (N), 3C cleavage in purification; label: 5'-FAM; single strand
T4 sequence: T1 sequence (looked up) 1

EXD3 FL(D399A) = molecular target: T5, EXD3 FL(D399A) (Homo sapiens, UniProt Q8N9H8 1-876, D399A); assay: fluorescence polarization; 250 mM NaCl; Hill h 1.029; FP, 50 nM RNA, 30 min, room temperature; C. elegans proteins: 20 mM HEPES/NaOH pH 7.5, 150 mM NaCl, 10% glycerol, 5 mM EDTA; human proteins: 20 mM HEPES/NaOH pH 7.5, 250 mM NaCl; conditions: protein: recombinant; label: 5'-FAM; single strand
T5 sequence: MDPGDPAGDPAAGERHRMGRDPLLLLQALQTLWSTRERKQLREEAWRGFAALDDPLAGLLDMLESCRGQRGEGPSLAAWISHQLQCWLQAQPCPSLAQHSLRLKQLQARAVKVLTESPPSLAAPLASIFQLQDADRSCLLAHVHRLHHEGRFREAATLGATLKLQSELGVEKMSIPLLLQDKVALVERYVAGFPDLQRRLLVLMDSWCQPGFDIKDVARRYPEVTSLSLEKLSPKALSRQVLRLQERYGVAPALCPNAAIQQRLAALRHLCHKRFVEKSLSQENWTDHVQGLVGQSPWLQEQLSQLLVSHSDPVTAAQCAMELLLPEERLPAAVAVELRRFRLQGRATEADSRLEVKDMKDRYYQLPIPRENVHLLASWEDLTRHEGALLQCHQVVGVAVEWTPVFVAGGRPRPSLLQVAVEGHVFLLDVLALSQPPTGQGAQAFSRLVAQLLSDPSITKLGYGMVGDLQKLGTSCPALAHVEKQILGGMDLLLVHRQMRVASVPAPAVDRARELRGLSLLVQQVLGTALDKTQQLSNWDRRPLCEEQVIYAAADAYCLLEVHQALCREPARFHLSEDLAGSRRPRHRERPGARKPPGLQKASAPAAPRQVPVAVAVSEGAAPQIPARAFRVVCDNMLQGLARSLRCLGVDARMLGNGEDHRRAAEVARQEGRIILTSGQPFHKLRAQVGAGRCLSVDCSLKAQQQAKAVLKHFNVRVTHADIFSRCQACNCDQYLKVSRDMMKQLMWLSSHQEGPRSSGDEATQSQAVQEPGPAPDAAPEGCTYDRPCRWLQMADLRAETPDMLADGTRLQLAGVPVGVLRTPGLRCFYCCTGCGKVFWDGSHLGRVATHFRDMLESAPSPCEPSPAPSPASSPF

EXD3 NTD-EXO(D399A) = molecular target: T6, EXD3 NTD-EXO(D399A) (Homo sapiens, UniProt Q8N9H8 1-582, D399A); assay: fluorescence polarization; 250 mM NaCl; Hill h 1.1; FP, 50 nM RNA, 30 min, room temperature; C. elegans proteins: 20 mM HEPES/NaOH pH 7.5, 150 mM NaCl, 10% glycerol, 5 mM EDTA; human proteins: 20 mM HEPES/NaOH pH 7.5, 250 mM NaCl; conditions: protein: recombinant; label: 5'-FAM; single strand
T6 sequence: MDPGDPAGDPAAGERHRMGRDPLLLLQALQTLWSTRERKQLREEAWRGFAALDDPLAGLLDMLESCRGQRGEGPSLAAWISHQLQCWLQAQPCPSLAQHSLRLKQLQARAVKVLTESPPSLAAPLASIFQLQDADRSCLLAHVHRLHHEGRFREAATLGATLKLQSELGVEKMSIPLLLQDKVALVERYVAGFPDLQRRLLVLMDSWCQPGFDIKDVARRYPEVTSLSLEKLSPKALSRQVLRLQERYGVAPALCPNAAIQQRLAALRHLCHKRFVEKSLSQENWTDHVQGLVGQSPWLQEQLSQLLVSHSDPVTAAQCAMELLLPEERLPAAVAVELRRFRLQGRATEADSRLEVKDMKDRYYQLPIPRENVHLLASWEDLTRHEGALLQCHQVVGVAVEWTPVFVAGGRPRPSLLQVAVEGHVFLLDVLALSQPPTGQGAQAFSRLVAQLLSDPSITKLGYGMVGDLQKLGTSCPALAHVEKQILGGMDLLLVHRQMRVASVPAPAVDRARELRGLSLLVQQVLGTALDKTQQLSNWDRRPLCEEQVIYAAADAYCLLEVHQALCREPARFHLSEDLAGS

B2: MUT-16^584–724 (domain or fragment, Caenorhabditis elegans, UniProt O62011 584-724, looked up)
chain: KKKSESSATDTSNTPPVDTVNVALPTPVVESSSTTAAPSIPVSTRPEVVVPPENPAPLREVGNFYSKSNHDEDRRNVQLPFTPADTHKPIKVAPKEPVRNPLLKERPSANGFINRRLPSHPAPPPVNQSQPANQPMQTAVY
notes: numbers count on the longer isoform B0379.3a.1 (O62011); an untagged form was purified for CD; source: E. coli BL21(DE3) derivative; co-expressed with MBP-tagged MUT-8 constructs, in lysate; co-expressed with MUT-8^NTD and purified as complex; purified
Kd [2]: ~13 µM

Binder: GUUGAUUGAAGAGUUC (ssRNA) [16-mer ssRNA]
Kd (MUT-7 NTD-EXO): 18.7 µM
Kd (MUT-7 FL): 2.33 µM
Kd (EXD3 FL(D399A)): 1.86 µM
Kd (EXD3 NTD-EXO(D399A)): 11.2 µM

Continued, values first:

binding result [1]: binds
B1: GST-tagged MUT-16^584–724 (domain or fragment, Caenorhabditis elegans, UniProt O62011 584-724, looked up)
chain: B2 chain
notes: numbers count on the longer isoform B0379.3a.1 (O62011); source: E. coli BL21(DE3) derivative, purified

binding result [1]: binds
B3: GST-tagged MUT-16^1–724 (domain or fragment, Caenorhabditis elegans, UniProt O62011 1-724, looked up)
chain: MSESDDDYPELDISDQYIDPLGIVVGPPPASYTETDREETPMQNRTEDDTNSYGNSSGEHDYDSYLDSGDDDFDVDAYYANDNMDEPPPETIPDNLIQNVIGRNDNADYDFSDASNPEIMKRDLQLFLSSSLLSNPLKFRSGYSSDELDDCLKSCMGYSLQVTAVLLLPPEIISQLPNDSKTEHAHALVRGGWLQSKEGAFFPVISDSERETVVSLMNGSEEQHKRQERKKKEADTFESEEKEIRTLLTFNMIAELLMAVRNEYSIRSVKYQILSTAYTNMVTGAAHANIFRKYKDILQLDPEKLWNNDWFKEYTNRGTLKKFLTTARFSEIVVSQANGKTVELYFRADDEGNRPVVLFTDEHIADVRNKWKTGNQRNQNYGSQGNYRAGGQRSDDRRGPQQRRNVIVPDPNYQPSTFAGGISNNADDDGSLQPTTSSHFNRNTDRSTSRPPRAPTSPVNRVMETDPLMGQGTSSGAPQRSAIPNPFGGAPALSRSTITNGNRGPSYGDRGERVQDVGDTTSDSEITSEGSYSDEDPEQKEIKRQRRKDKLKKKQERELRSREKHTKSKQQPPSKIETRFNTYKKKSESSATDTSNTPPVDTVNVALPTPVVESSSTTAAPSIPVSTRPEVVVPPENPAPLREVGNFYSKSNHDEDRRNVQLPFTPADTHKPIKVAPKEPVRNPLLKERPSANGFINRRLPSHPAPPPVNQSQPANQPMQTAVY
notes: numbers count on the longer isoform B0379.3a.1 (O62011); also called the longest MUT-16 construct; source: E. coli BL21(DE3) derivative, purified
